Measured values as given in PMC10272122 (2023).

Molecular target: PDF-2180 RBD-hFc (PDF-2180)
Test: BLI

B1: ACE2 from Pipistrellus pipistrellus (Ppip ACE2) (receptor)
chain: TTEEEARDFLDKFNSEAENLSHESALASWDYNTNITDENAQKMNEADSKWSDFYKEQSKRAQAFPLQEIQNLTIKLQLQILQQNGSSVLTAEKSKRLSTILTTMSTIYSTGKVCNPNNPQQCFTLSGLEDIMEKSKDYHQRLWVWEGWRSEVGKQLRPLYEEYVVLKNEMARGNNYEDYGDYWRGDYETEGEDGYNYSRNQLMEDVDRIFLEIKPLYEQLHAYVRAKLMNAYPSRISPTGCLPAHLLGDMWGRFWTNLYNLTVPFEQKQNIDVTETMKKQSWDAEKIFKEAEKFYLSVGLYSMTQGFWNNSMLTEPSDGRQVVCHPTAWDLGEDDFRIKMCTKVTMDDFLTAHHEMGHIQYDMAYAKQPYLLRNGANEGFHEAVGEVMSLSVATPKHLKGMGLLPSDFSEDNETEINFLLKQALNIVGTLPFTYMLEKWRWMVFEGKIPKEQWMEKWWEMKREIVGVVEPLPHDETYCDPASLFHVANDYSFIRYFTRTILEFQFQEALCKIAKHEGPLHKCDISNSTEAGKKLKDMLELGKSKPWTYALNQIARTKEMDAKPLLNYFEPLFSWLKKQNGNSVGWSADWSPYSEQSLKVRISLISALGEKAYEWNDNEMYLFRSSVAYAMRVYFSKMNKTIPFTAEDVRVSDEKKRVSFKFFVTSPTNISDIIPRSEVEDAIRMSRSRINDA
Question: Which Kd does the source give for B1 here?
Answer: 0.417 nM

Question: And the koff?
Answer: 5.54e-05 s⁻¹
